Measured values taken from patent US9127040B2, “Regulation of sodium channels by PLUNC proteins” (The University of North Carolina at Chapel Hill, priority 2011, dated 2015).

Experiments:
ENaC = target: T1, ENaC (Homo sapiens, UniProt P37088+P51168+P51170); test: Transepithelial voltage (PD), thin film conditions, human bronchial epithelial cultures; type: cell-based; conditions: 50 ng/ml, PD remeasured 45 min later, prewashed cultures
T1 construct: measured the transepithelial voltage under thin film conditions in human bronchial epithelial cultures; endogenous in cells; host or cells: primary human bronchial epithelial cultures (normal or CF donors)
T1 sequence (P37088 1-669): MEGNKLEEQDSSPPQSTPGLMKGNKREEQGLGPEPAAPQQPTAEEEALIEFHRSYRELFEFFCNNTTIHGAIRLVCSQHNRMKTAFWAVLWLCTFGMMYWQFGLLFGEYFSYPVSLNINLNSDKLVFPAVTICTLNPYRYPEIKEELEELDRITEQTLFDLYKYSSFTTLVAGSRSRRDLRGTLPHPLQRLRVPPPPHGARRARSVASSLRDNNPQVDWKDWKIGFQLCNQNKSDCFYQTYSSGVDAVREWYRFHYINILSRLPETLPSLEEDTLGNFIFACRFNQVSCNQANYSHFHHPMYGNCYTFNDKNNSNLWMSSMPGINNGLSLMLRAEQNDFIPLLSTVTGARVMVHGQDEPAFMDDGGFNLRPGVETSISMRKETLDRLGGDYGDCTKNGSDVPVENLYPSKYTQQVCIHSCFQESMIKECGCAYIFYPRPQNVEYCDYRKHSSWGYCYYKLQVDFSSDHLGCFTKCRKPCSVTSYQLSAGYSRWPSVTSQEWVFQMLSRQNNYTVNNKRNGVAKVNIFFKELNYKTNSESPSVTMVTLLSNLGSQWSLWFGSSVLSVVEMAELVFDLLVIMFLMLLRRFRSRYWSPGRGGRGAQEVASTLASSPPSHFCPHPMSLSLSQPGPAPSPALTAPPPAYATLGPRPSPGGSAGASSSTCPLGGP
T1 sequence (P51168 1-640): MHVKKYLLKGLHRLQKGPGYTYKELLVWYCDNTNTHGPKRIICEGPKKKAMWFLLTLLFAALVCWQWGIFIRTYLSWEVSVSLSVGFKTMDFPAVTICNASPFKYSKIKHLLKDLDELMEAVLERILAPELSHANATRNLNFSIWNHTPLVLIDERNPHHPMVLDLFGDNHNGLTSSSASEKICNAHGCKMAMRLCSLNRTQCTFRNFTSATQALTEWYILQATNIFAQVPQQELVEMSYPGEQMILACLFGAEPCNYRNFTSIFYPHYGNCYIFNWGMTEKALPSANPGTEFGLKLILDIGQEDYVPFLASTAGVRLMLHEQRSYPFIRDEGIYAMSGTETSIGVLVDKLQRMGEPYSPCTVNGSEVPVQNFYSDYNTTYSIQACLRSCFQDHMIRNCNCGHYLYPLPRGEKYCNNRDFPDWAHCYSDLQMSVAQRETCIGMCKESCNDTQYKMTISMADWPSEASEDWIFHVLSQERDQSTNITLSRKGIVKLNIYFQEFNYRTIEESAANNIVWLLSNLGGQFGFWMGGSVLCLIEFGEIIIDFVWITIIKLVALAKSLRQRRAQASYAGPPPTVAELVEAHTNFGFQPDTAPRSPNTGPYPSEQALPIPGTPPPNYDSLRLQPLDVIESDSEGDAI
T1 sequence (P51170 1-649): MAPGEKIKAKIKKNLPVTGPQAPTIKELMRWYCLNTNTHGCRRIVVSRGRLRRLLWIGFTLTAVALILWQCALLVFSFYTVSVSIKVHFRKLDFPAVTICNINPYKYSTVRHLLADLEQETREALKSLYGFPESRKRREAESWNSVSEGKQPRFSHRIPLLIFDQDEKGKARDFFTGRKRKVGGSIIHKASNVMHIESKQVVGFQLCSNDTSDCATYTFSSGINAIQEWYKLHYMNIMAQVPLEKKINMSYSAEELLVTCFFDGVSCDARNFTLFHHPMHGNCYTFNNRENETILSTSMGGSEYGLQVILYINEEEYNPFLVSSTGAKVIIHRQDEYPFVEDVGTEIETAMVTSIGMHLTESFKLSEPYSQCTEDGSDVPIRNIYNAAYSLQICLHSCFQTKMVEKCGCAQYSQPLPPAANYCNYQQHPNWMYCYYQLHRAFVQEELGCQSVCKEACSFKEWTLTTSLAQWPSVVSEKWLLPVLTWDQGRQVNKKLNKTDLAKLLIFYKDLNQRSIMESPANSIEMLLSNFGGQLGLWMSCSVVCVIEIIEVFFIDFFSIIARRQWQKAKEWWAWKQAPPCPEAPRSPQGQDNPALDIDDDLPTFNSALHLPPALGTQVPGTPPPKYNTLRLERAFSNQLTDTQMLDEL
From the text: Tissue procurement and cell culture: Cells were harvested by enzymatic digestion from human bronchial tissue as previously described under a protocol approved by the UNC School of Medicine IRB (Tarran et al., J. Gen. Physiol. 127:591 (2006)). Human excess donor lungs and excised recipient lungs were obtained at the time of lung transplantation from portions of main stem or […] bronchi and cells were harvested by enzymatic digestion. All preparations were maintained at an air-liquid interface in a modified bronchial epithelial medium and used 2-5 weeks after seeding on 12 mm T-Clear inserts (Corning Costar) coated with human placental type VI collagen (Sigma). Phosphate buffered saline (PBS) was used for washing human bronchial epithelial culture mucosal surfaces. HBECs were maintained at an air-liquid interface in a modified bronchial epithelial growth medium (BEGM) with 5% CO2 at 37° C. and used 2-5 weeks after seeding on 12-mm T-clear inserts (Corning-Costar, Corning, N.Y., USA) (Randell, Methods Mol. Biol. 742:285 (2011)).
A single-barreled potential difference-sensing electrode was placed in the airway surface liquid by micromanipulator and used in conjunction with a macroelectrode in the serosal solution to measure transepithelial voltage using a voltmeter (World Precision Instruments). […] Transepithelial resistance was routinely measured using the EVOM system (WPI) as previously described (Tarran et al., J. Gen. Physiol. 127:591 (2006)).

CF HBECs = conditions: 30 μM, ASL height over 24 h
Method: To label airway surface liquid, Ringer containing Texas Red-dextran (2 mg/ml; Invitrogen) was added to human bronchial epithelial culture mucosal surfaces. Perfluorocarbon was added mucosally to prevent evaporation of the airway surface liquid and the culture placed in a chamber containing 100 μl Ringer on the stage of a Leica SP5 confocal microscope with a 63× glycerol immersion objective. 5 points per culture were scanned and an average airway surface liquid height determined. For confocal microscopy human bronchial epithelial cultures were bathed serosally in a modified Ringer solution containing (mM): 116 NaCl, 10 NaHCO3, 5.1 KCl, 1.2 CaCl2, 1.2 MgCl2, 20 TES, 10 glucose, pH 7.4). At all other times, human bronchial epithelial cultures were maintained in a modified BEGM growth medium which contained 24 mM NaHCO3 gassed with 5% CO2.
To label the ASL, PBS containing 10 kDa Rhodamine dextran (0.2-2 mg/mL; Invitrogen, Carlsbad, Calif., USA) was added to HBEC mucosal surfaces as previously described (Tarran et al., Mol. Cell 8:149 (2001)). When added, peptides with or without 100 nM neutrophil elastase, 1 U/mL aprotinin, activated neutrophil supernatant (ANS) (Haynes et al., Am. J. Physiol. Heart Circ. Physiol. 294:H379 (2008)) or 10 μM sivelestat (Sigma-Aldrich, St Louis, Mo., USA) were added to the mucosal surface along with the Rhodamine dextran. Bumetanide (100 μM) was added to the serosal solution.

Molecule	inhibition of transepithelial PD after DTT reduction (ENaC)	ASL absorption in CF cultures (CF HBECs)
recombinant SPLUNC1 that had been reduced with DTT: recombinant SPLUNC1 pretreated (reduced) with DTT (protein, UniProt Q9NP55 20-256, looked up, DTT-reduced) BPI fold-containing family A …: QFGGLPVPLDQTLPLNVNPALPLSPTGLAGSLTNALSNGLLSGGLLGILENLPLLDILKPGGGTSGGLLGGLLGKVTSVIPGLNNIIDIKVTDPQLLELGLVQSPDGHRLYVTIPLGIKLQVNTPLVGASLLRLAVKLDITAEILAVRDKQERIHLVLGDCTHSPGSLQISLLDGLGPLPIQGLLDSLTGILNKVLPELVQGNVCPLVNEVLRGLDITLVHDIVNMLIHGLQFVIKV	abolished SPLUNC1 activity	
mutant SPLUNC1: SPLUNC1 with hinge domain mutated to alanines: K94A, N103A, N104A, K138A, Q140A, N142A, D193A (protein, UniProt Q9NP55 20-256, looked up, variant K94A N103A N104A K138A Q140A N142A D193A) BPI fold-containing family A …: QFGGLPVPLDQTLPLNVNPALPLSPTGLAGSLTNALSNGLLSGGLLGILENLPLLDILKPGGGTSGGLLGGLLGAVTSVIPGLAAIIDIKVTDPQLLELGLVQSPDGHRLYVTIPLGIALAVATPLVGASLLRLAVKLDITAEILAVRDKQERIHLVLGDCTHSPGSLQISLLAGLGPLPIQGLLDSLTGILNKVLPELVQGNVCPLVNEVLRGLDITLVHDIVNMLIHGLQFVIKV		significantly inhibited ASL absorption
